US20240317834A1, “COMPOSITIONS AND METHODS FOR NEUROLOGICAL DISEASES” (CODA BIOTHERAPEUTICS, INC., priority 2020, published 2024)

Tested on: Lenti-X 293T cells
Experiment: YFP fluorescence quenching anion reporter plate reader assay of engineered receptors stimulated with acetylcholine or a non-native ligand
Format: cell-based
Description: To screen these mutant LGICs for those having novel response profiles to ligands, an anion reporter assay was developed to assess the function of the LGICs in a high throughput format. In this assay, cells expressing a YFP reporter whose fluorescence is quenched in the presence of anion are transfected with DNA encoding the channel of interest. Upon exposure to ligand, channels that are activated will flux anion, resulting in a dose-dependent quench of the YFP that can be detected on a plate reader. The greater the quench signal (i.e., the more positive the value), the higher the ligand activity on the receptor is.
Lenti-X 293T cells (LX293T, Clontech) were maintained in DMEM containing 10% FBS and 1% penicillin/streptomycin (Invitrogen). […] Two days before assay, cells were split at a density of 20,000 cells/well in a 96-well tissue culture plate coated with poly-d lysine (Thermo Scientific). The next day, the cells were transiently transfected with 0.1 μg of DNA per well using standard Fugene protocol (Promega). On the day of assay, cells were washed 2 times in 1× extracellular solution (1×ECS: 140 mM NaCl, 5 mM KCl, 1 mM MgCl2, 2 mM CaCl2), 10 mM HEPES, 10 mM glucose, pH 7.2, mOsms 300). After the last wash, 100 μL of 1×ECS was added to the wells and the plate was incubated at 37° C. for 30 min. While incubating the plate, the drugs were diluted to a 2× concentration in 1×ECS-NaI (same components as 1×ECS except the 140 mM NaCl was replaced by 140 mM NaI). The plates were then read on a Flexstation3 (Molecular Devices). Each well, 8 wells at a time, of the plate is read for 2 min using a Flexstation3 (Molecular Devices) as follows: 1) a baseline YFP fluorescence is read for 17 sec, 2) 100 μL of ligand is added, and 3) the changes in YFP fluorescence are then measured every 1.3 sec for 1 minute and 43 seconds. The percent quench is calculated from the average fluorescence of the last 10 seconds of the read divided by the baseline average of the first 15 seconds prior to the ligand addition.
FIGS. 1A-1J provide heat maps of the percent quench of YFP fluorescence following stimulation by various doses of either acetylcholine or the non-native ligand as indicated in the Figures. CODA71 (SEQ ID NO: 33) was used as a control, and CODA75 (SEQ ID NO: 29, a non-responding chimeric engineered receptor) was used as the negative control. Quenching of the fluorescence signal, as indicated by blue shaded cells, indicate the level of engineered receptor activation by the non-native ligand at that concentration.

B1: CODA335: engineered chimeric LGIC receptor, L131T in SEQ ID NO: 33 (protein)
chain: MRCSPGGVWLALAASLLHVSLQGEFQRKLYKELVKNYNPLERPVANDSQPLTVYFSLSLLQIMDVDEKNQVLTTNIWLQMSWTDHYLQWNVSEYPGVKTVRFPDGQIWKPDILLYNSADERFDATFHTNVTVNSSGHCQYLPPGIFKSSCPMDLKNFPMDVQTCKLKFGSWSYGGWSLDLQMQEADISGYIPNGEWDLVGIPGKRSERFYECCKEPYPDVTFTVTMRRRMGYYLIQMYIPSLLIVILSWISFWINMDAAPARVGLGITTVLTMTTQSSGSRASLPKVSYVKAIDIWMAVCLLFVFSALLEYAAVNFVSRQHKELLRFRRKRRHHKSPMLNLFQEDEAGEGRFNFSAYGMGPACLQAKDGISVKGANNSNTTNPPPAPSKSPEEMRKLFIQRAKKIDKISRIGFPMAFLIFNMFYWIIYKIVRREDVHNQ
modifications: synthetic sequence of chimeric LGIC
1 nM CNL001, first column
  YFP fluorescence quenching using CNL001: −9.942%
1 nM CNL001, second column
  YFP fluorescence quenching using CNL001: −0.475%
1 nM brd
  YFP fluorescence quenching using TC-5619/Bradanicline: −2.39%
3 nM brd
  YFP fluorescence quenching using TC-5619/Bradanicline: −4.08%
3 nM var, first column
  YFP fluorescence quenching using Varenicline: 0.398
3 nM var, second column
  YFP fluorescence quenching using Varenicline: 3.947
10 nM CNL001, first column
  YFP fluorescence quenching using CNL001: 17.889%
10 nM CNL001, second column
  YFP fluorescence quenching using CNL001: 38.46%
10 nM brd
  YFP fluorescence quenching using TC-5619/Bradanicline: −3.3%
30 nM brd
  YFP fluorescence quenching using TC-5619/Bradanicline: −9.69%
30 nM fac
  YFP fluorescence quenching using Facinicline: 1.24
30 nM var, first column
  YFP fluorescence quenching using Varenicline: 5.31
30 nM var, second column
  YFP fluorescence quenching using Varenicline: 7.666
50 nM CNL001, first column
  YFP fluorescence quenching using CNL001: 61.741%
50 nM CNL001, second column
  YFP fluorescence quenching using CNL001: 69.159%
50 nM abt
  YFP fluorescence quenching using ABT-126: −18%
100 nM CNL001, first column
  YFP fluorescence quenching using CNL001: 73.635%
100 nM CNL001, second column
  YFP fluorescence quenching using CNL001: 76.092%
100 nM CNL002
  YFP fluorescence quenching using CNL002: −14.53%
100 nM abt
  YFP fluorescence quenching using ABT-126: −16.39%
100 nM azd0328
  YFP fluorescence quenching using AZD-0328: 11.33%
100 nM brd
  YFP fluorescence quenching using TC-5619/Bradanicline: −1.05%
300 nM abt
  YFP fluorescence quenching using ABT-126: −15.05%
300 nM azd0328
  YFP fluorescence quenching using AZD-0328: 44.15%
300 nM brd
  YFP fluorescence quenching using TC-5619/Bradanicline: 10.53%
300 nM fac
  YFP fluorescence quenching using Facinicline: 46.92
300 nM var, first column
  YFP fluorescence quenching using Varenicline: 4.327
300 nM var, second column
  YFP fluorescence quenching using Varenicline: 3.275
500 nM var, first column
  YFP fluorescence quenching using Varenicline: 1.835
500 nM var, second column
  YFP fluorescence quenching using Varenicline: 4.863
1 uM CNL001, first column
  YFP fluorescence quenching using CNL001: 80.633%
1 uM CNL001, second column
  YFP fluorescence quenching using CNL001: 79.637%
1 uM CNL002
  YFP fluorescence quenching using CNL002: 6.45%
1 uM abt
  YFP fluorescence quenching using ABT-126: −5.56%
1 uM brd
  YFP fluorescence quenching using TC-5619/Bradanicline: 34.72%
1 uM tc6987
  YFP fluorescence quenching using TC-6987: −0.14
1 uM var, first column
  YFP fluorescence quenching using Varenicline: 9.471
1 uM var, second column
  YFP fluorescence quenching using Varenicline: 7.505
3 uM tc6987
  YFP fluorescence quenching using TC-6987: −8.32
5 uM tc6987
  YFP fluorescence quenching using TC-6987: −2.13
10 uM fac
  YFP fluorescence quenching using Facinicline: 79.06
10 uM tc6987
  YFP fluorescence quenching using TC-6987: 0.13
30 uM CNL002
  YFP fluorescence quenching using CNL002: 57.43%
30 uM azd0328
  YFP fluorescence quenching using AZD-0328: 80.96%
30 uM fac
  YFP fluorescence quenching using Facinicline: 81.06
30 uM tc6987
  YFP fluorescence quenching using TC-6987: −6.86
50 uM tc6987
  YFP fluorescence quenching using TC-6987: −9.5
100 uM tc6987
  YFP fluorescence quenching using TC-6987: −10.98
300 uM tc6987
  YFP fluorescence quenching using TC-6987: −12.16
500 uM tc6987
  YFP fluorescence quenching using TC-6987: −2.41
TC-6683 30 nM
  percent quench of YFP fluorescence, 30 nM TC-6683: −13.84%
TC-6683 300 nM
  percent quench of YFP fluorescence, 300 nM TC-6683: −20.66%
TC-6683 3 uM
  percent quench of YFP fluorescence, 3 uM TC-6683: −17.86%
TC-6683 30 uM
  percent quench of YFP fluorescence, 30 uM TC-6683: −18.91%
TC-6683 100 uM
  percent quench of YFP fluorescence, 100 uM TC-6683: −16.88%
Acetylcholine 10 uM
  percent quench of YFP fluorescence, 10 uM ach: −9.13%
Acetylcholine 100 uM
  percent quench of YFP fluorescence, 100 uM ach: −9.29%
Acetylcholine 1 mM
  percent quench of YFP fluorescence, 1 mM ach: 0.57%
Acetylcholine 3 mM
  percent quench of YFP fluorescence, 3 mM ach: 35.37%
